Values quoted from earlier work as cited in patent US11866502B2, “Anti-FGFR2 antibodies and methods of use thereof” (Regeneron Pharmaceuticals, Inc., priority 2020, dated 2024).

Legend:
[1] = minimum tolerated dose below the therapeutic threshold estimated preclinically; trial terminated early; cited from earlier work
xenograft models = conditions: several xenograft models; cited from earlier work

B1: Aprutumab ixodotin: FGFR2 antibody conjugated to auristatin (conjugate, chains of the INN, looked up)
VH: EVQLLESGGGLVQPGGSLRLSCAASGFTFSSYAMSWVRQAPGKGLEWVSAISGSGTSTYYADSVKGRFTISRDNSKNTLYLQMNSLRAEDTAVYYCARVRYNWNHGDWFDPWGQGTLVTVSS
VL: QSVLTQPPSASGTPGQRVTISCSGSSSNIGNNYVSWYQQLPGTAPKLLIYENYNRPAGVPDRFSGSKSGTSASLAISGLRSEDEADYYCSSWDDSLNYWVFGGGTKLTVL
modifications: auristatin payload conjugate
notes: FGFR2 antibody conjugated to auristatin
[1]
  tolerability in clinical testing: poorly tolerated

B2: Aprutumab-TTC: anti-FGFR2 antibody, a chelator moiety covalently conjugated to the antibody, and the alpha particle-emitting radionuclide thorium-227 (conjugate, chains of the INN, looked up)
VH: B1 VH
VL: B1 VL
modifications: chelator conjugate with thorium-227
Xenograft models
  tumor growth in xenograft models: inhibited tumor growth
